According to US20160362487A1 (Regeneron, published 2016):

T1: cynomolgus monkey IL-33 expressed with a C-terminal hexahistidine tag (cynomolgus monkey)
T1 construct: also called MfIL-33-6His; Mf-IL-33-6His
T1 chain: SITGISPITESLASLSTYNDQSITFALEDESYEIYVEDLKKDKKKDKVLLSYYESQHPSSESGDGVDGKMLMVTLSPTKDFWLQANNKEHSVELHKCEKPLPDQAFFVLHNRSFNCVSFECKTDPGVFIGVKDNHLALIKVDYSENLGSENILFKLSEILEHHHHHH

T2: human IL-33 (R&D Systems, #3625-IL-010/CF) (human, UniProt O95760 112-270)
T2 construct: Commercial recombinant protein; also called hIL-33; interleukin-33
T2 sequence (looked up): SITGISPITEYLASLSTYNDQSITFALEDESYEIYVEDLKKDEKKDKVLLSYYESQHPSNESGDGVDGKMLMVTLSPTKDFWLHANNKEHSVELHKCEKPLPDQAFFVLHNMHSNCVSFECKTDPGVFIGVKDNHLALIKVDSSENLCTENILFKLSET

T3: biotinylated hIL-33 protein (R&D systems, Cat #3625-IL/CF) (human, UniProt O95760 112-270, biotinylated (sites not given))
T3 construct: Same commercial protein as m21, biotin-labelled; also called biotin-hIL-33
T3 sequence (looked up): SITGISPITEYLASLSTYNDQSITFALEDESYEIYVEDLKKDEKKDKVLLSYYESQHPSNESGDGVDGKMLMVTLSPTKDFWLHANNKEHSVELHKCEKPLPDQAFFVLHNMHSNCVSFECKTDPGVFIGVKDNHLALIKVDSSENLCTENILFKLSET


What was measured:
[1] = target: T1, cynomolgus monkey IL-33 expressed with …; assay: BLI; captured MfIL-33-6His, mAb-1 step with Isotype control
Method: (§1) Binding competition between a panel of different anti-IL-33 monoclonal antibodies was determined using a real time, label-free bio-layer interferometry assay on an Octet® HTX biosensor (ForteBio, A Division of Pall Life Sciences). The experiment was performed at 25° C. using a buffer of 0.01M HEPES pH7.4, 0.15M NaCl, 3 mM EDTA, 0.05% v/v Surfactant Tween-20, and 0.1 mg/ml BSA (HBS-ET kinetics buffer) with the plate shaking at a speed of 1000 rpm. […] The antigen-captured biosensors were then saturated with a first anti-IL-33 monoclonal antibody (subsequently referred to as mAb-1) by immersion into wells containing 50 μg/mL solution of mAb-1 for 5 minutes. The biosensors were then dipped into wells containing a 50 μg/mL solution of a second anti-IL-33 monoclonal antibody (subsequently referred to as mAb-2) for 4 minutes. The biosensors were washed in HBS-ET kinetics buffer in between every step of the experiment. The real-time binding response was monitored during the experiment, and the maximum binding response for each binding step was recorded. The response of mAb-2 binding to MfIL-33-6His pre-complexed with mAb-1 was measured, and competitive/non-competitive behavior of different anti-IL-33 monoclonal antibodies with respect to each other was determined.

[2] = target: T2, human IL-33 (R&D Systems, …); assay: SPR 25C, pH6.0 chase, mAb captured
Method: (§2) Equilibrium dissociation constants (KD values) for IL-33 binding to purified anti-IL-33 monoclonal antibodies were determined using a real-time surface plasmon resonance biosensor using a Biacore 4000 instrument. The Biacore sensor surface was first derivatized by amine coupling with either a polyclonal rabbit anti-mouse antibody (GE, # BR-1008-38) or with a monoclonal mouse anti-human Fc antibody (GE, # BR-1008-39) to capture anti-IL-33 monoclonal antibodies expressed with mouse or with human IgG4 constant regions, respectively. All Biacore binding studies were performed in 0.01M ADA pH 7.4, 0.15M NaCl, 3 mM EDTA, and 0.05% v/v Surfactant Tween-20 (ABS-ET running buffer). […] Association of either hIL-33 or MfIL-33-6His to the captured monoclonal antibody was monitored for 4 minutes and their dissociation in ABS-ET running buffer was monitored for 10 minutes. The effect of reduced pH on the binding of each anti-IL-33 antibody to either hIL-33 or MfIL-33-6His was studied using an in-line pH chase assay format in 0.01M ADA pH 6.0, 0.15M NaCl, 3 mM EDTA, and 0.05% v/v Surfactant Tween-20 (ABS-ET pH6 buffer). To achieve this, association of either hIL-33 or MfIL-33-6His to the captured monoclonal antibody was monitored for 4 minutes in ABS-ET running buffer. Following a 30 second dissociation of either hIL-33 or MfIL-33-6His in ABS-ET running buffer, ABS-ET pH6 buffer was injected for 3 minutes, and the analyte dissociation under the low-pH conditions was measured. All the binding kinetic experiments were performed at both 25° C. and 37° C. Kinetic association (kₐ) and dissociation (kd) constants were determined by fitting the real-time sensorgrams to a 1:1 binding model using Scrubber 2.0c curve fitting software. Binding dissociation equilibrium constants (KD) and dissociative half-lives (t½) were calculated from the kinetic rate constants as: […]

[3] = target: T1, cynomolgus monkey IL-33 expressed with …; assay: SPR 25C, pH6.0 chase, mAb captured
Method: as §2

[4] = target: T1, cynomolgus monkey IL-33 expressed with …; assay: BLI; mAb-1 on captured MfIL-33-6His
Method: as §1

[5] = target: T3, biotinylated hIL-33 protein (R&D …); assay: competition ELISA, 30 pM biotin-hIL-33 on coated hST2-hFc
Method: The ability of anti-IL-33 antibodies to block either human IL-33 (hIL-33) or cynomologus monkey IL-33 binding to the human ST2 receptor was measured using a competition sandwich ELISA. […] The antibody/IL-33 mixtures were incubated for 1 hour at room temperature before they were transferred to the hST2-hFc-coated microtiter plates. After incubating for 1 hour at room temperature, the wells were then washed, and plate-bound biotin-hIL-33 was detected with streptavidin conjugated with horse-radish peroxidase (HRP) (Thermo Scientific, Cat # N200), and plate-bound MfIL-33-6His was detected with a HRP conjugated anti-His monoclonal antibody (Qiagen, #34460). All samples were developed with a TMB solution (BD biosciences, #51-2607KC) to produce a colorimetric reaction and then quenched by acidification with 1M sulfuric acid before measuring absorbance at 450 nm on a Victor X5 plate reader. Data analysis was performed using a sigmoidal dose-response model within Prism™ software. […] Percent blockade was calculated as the ratio of the reduction in signal observed in the presence of antibody relative to the difference between the signal with IL-33 alone and background (signal from HRP-conjugated secondary antibody or streptavidin alone). The absorbance measured for the constant concentration of biotin-hIL-33 or MfIL-33-6His alone is defined as 0% blocking and the absorbance measured for no added IL-33 is defined as 100% blocking.

Binder	mAb-2 Binding to the Pre-complex of mAb-1 & MfIL-33-6xHis [1]	koff [2]	t½ [2]	t½ Ratio (pH 7.4/pH 6.0) [2]	koff [3]	t½ [3]	t½ Ratio (pH 7.4/pH 6.0) [3]	mAb-1 Binding (nm) [4]	% Maximum blocking [5]	IC50 [5]
H1M9566N (antibody, mouse IgG1, V domains shown, Human variable domains, mouse IgG1 Fc (H1M)) VH: EVQLLESGGDLVQPGGSLRLSCAASGFTFSSYAMSWVRQAPGKGLEWVSVISGSGSSTDYADSVKGRFTISRDNSRDTLHLQMNSLRAEDTAVYYCAKTFYYFYGLDVWGQGTTVTVSS VL: DIQMTQSPSSLSASLRDRVTITCRASQGISNYLAWYQQKPGKVPKVLIYAASTLQSGVPSRFSGSGSGTVFTLTISSLQTEDVATYYCQKYSSAPFTFGPGTKVDIK	0.38 nm	0.00011 s⁻¹	105 min	11	0.000126 s⁻¹	91 min	1.3	0.58 nm	69%	0.32 nM
H1M9565N (antibody, mouse IgG1, V domains shown, Human variable domains, mouse IgG1 Fc (H1M)) VH: QVTLKESGPVLVKPTESLTLTCSVSGFSLSNVRMGVSWIRQSPGKALEWLAHIFSNDEKSYTTSLKTRLTISKDTSRSQVVLTMTDMDPGDTATYYCARIRNLAFNYWGQGTLVTVSS VL: not shown	0.34 nm	–	–	–	0.000143 s⁻¹	81 min	2	0.46 nm	68%	22 nM
H1M9568N (antibody, mouse IgG1, V domains shown, Human variable domains, mouse IgG1 Fc (H1M)) VH: QVLLVQSGAEVKKPGATVKVSCKASGSTFTGYYMHWVRQAPGQGLEWMGWINPNNGGTNYAQKFQGRVTMTRDTSISTAYMELSRLRSDDTAVYYCARELRYNWKSWGQGTLVTVSS VL: EIVLTQSPGTLSLSPGERVTLSCRASQSVGRPYLAWYQQIPGQAPRLLIYGASSRATDIPDRFSGNGSGTDFTLTISRLEPEDFAVYYCQQYDNSPYTFGQGTRLEIK	0.34 nm	0.000178 s⁻¹	65 min	1.4	0.000302 s⁻¹	38 min	1.2	0.5 nm	55%	0.19 nM
H4H9629P (antibody, human IgG4, V domains shown, Human IgG4 Fc (H4H)) VH: EVQLVESGGGLVQPGGSLRLSCAASGFTFRSFAMSWVRQAPGKGLELVSDLRTSGGSTYYADSVKGRLTISRDNSKNTLYLQMNSLRAEDTAVYYCAKSHYSTSWFGGFDYWGQGTLVTVSS VL: DIQMTQSPSSVSASVGDRVTITCRASQGFSSWLAWYQQKPGKAPKLLIYAASSLQSGVPSRFSGSGSGTDFTLTITNLQPEDFATYYCQQANSFPLTFGGGTKVEIK	0.26 nm	0.00128 s⁻¹	9 min	5.7	0.0358 s⁻¹	0.3 min	2.7	0.72 nm	80%	0.45 nM
H4H9633P (antibody, human IgG4, V domains shown, Human IgG4 Fc (H4H)) VH: EVQLVESGGGLVQPGGSLRLSCAASGFTFSSYVMSWVRQAPGKGLEWVSSISGNGGSTNYADSVKGRFTISRDNSKNTLFLEMNSLRAEDTAVYYCAKSLGTTTTFLGFDYWGQGTLVTVSS VL: DIQMTQSPSSVSASVGDRVTITCRASQGISSWLAWYQQKPGKAPKLLIYAASSLQSGVPSRFSGSGSGTYFTLTISSLQPEDFATYYCQQANSFPLTFGGGTKVEIK	0.28 nm	0.00081 s⁻¹	14 min	2.9	0.00287 s⁻¹	4 min	0.3	0.64 nm	66%	0.44 nM
H4H9640P (antibody, human IgG4, V domains shown, Human IgG4 Fc (H4H)) VH: QVQLQESGPGLVKPSETLSLTCTVSGGSISSYYWSWIRQPPGKGLELIGYIYYSGSTNYNPSLKSRVTISVDTSKNHFSLKLSSVTAADTAVYYCARSQYTSSWYGSFDIWGQGTMVTVSS VL: DIQMTQSPSSVSASVGDRVTITCRASQGISTWLAWFQQKPGKAPKLLIYAASTLQGGVPSRFSGSGSGPEFTLTISSLQPEDFATYYCQQANSFPWTFGQGTKVEIK	0.28 nm	0.000657 s⁻¹	18 min	2.8	0.000501 s⁻¹	23 min	0.4	0.61 nm	78%	0.35 nM
H4H9659P (antibody, human IgG4, V domains shown, Human IgG4 Fc (H4H)) VH: QVQLVQSGAEVKKPGASVKVSCKASGYTFNSYGISWVRQAPGQGLEWMGWISSHNGNSHYVQKFQGRVSMTTDTSTSTAYMELRSLRSDDTAVYYCARHSYTTSWYGGFDYWGQGTLVTVSS VL: DIQMTQSPSSVSASVGDRVTITCRASQGFSSWLAWYQQKPGKAPQLLIYAASSLQSGVPSRFSGSGSGSDFTLTISSLQPEDFATYYCQQANSFPLTFGGGTKVEIK	0.25 nm	0.000664 s⁻¹	17 min	3.9	0.000123 s⁻¹	94 min	0.3	0.56 nm	78%	0.4 nM
H4H9660P (antibody, human IgG4, V domains shown, Human IgG4 Fc (H4H)) VH: EVQLVESGGGLVQPGGSLRLSCAASGITLSSYGMSWVRQAPGKGLEWVASIFGSGGGPYYADSVKGRFTMSRDNSKNTLYLQMNSLRAEDTAVYYCAKDRYSGSYYGGFDYWGRGTLVTVSS VL: DIQMTQSPSSVSASVGDRVTITCRASQGITSWLAWYQQKPGKAPTLLIYAASSLQTGVPSRFSGSGSGTDFTLTISSLQPEHFATYYCQQANSFPPTFGGGTKVEIK	0.26 nm	0.000708 s⁻¹	16 min	3.2	0.00108 s⁻¹	11 min	0.7	0.58 nm	57%	0.31 nM
